Measurements from patent US20220411483A1 (Chugai, published 2022).

T1: FcγRIIb extracellular domain, His tag (human, UniProt P31994 43-217)
T1 construct: extracellular domain; also called FcgRIIb
T1 sequence (looked up): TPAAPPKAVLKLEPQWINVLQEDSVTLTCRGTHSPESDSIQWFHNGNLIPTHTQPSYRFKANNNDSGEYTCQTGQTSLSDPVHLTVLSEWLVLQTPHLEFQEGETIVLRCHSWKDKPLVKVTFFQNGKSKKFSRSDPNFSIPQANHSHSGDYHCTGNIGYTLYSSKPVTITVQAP

T2: FcγRIIa R type extracellular domain, His tag (human, UniProt P12318 34-217)
T2 construct: extracellular domain; also called FcgRIIaR
T2 sequence (looked up): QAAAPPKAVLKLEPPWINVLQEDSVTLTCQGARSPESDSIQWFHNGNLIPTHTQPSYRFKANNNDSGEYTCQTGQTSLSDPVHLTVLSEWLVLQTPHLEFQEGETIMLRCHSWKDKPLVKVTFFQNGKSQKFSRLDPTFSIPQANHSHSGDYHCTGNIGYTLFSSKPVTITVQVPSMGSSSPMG

T3: FcγRIIb extracellular domain with C-terminal His tag (human, UniProt P31994 43-217)
T3 construct: extracellular domain; also called FcgRIIb; not shown: His tag at the C terminus
T3 sequence (looked up): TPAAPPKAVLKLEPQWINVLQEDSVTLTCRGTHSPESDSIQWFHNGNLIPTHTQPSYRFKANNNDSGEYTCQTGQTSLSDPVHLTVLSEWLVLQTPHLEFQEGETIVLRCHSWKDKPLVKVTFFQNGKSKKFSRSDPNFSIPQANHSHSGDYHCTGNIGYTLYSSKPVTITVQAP

T4: FcγRIIa R type extracellular domain with C-terminal His tag (human, UniProt P12318 34-217)
T4 construct: extracellular domain; also called FcgRIIaR; not shown: His tag at the C terminus
T4 sequence (looked up): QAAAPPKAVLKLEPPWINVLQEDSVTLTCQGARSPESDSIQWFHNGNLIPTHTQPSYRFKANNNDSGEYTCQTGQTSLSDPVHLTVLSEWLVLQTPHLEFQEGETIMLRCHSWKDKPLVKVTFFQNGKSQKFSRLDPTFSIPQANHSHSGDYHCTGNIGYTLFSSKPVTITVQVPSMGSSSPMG

T5: FcgRIIb (human, UniProt P31994 43-217)
T5 construct: extracellular domain; also called FcγRIIb
T5 sequence (looked up): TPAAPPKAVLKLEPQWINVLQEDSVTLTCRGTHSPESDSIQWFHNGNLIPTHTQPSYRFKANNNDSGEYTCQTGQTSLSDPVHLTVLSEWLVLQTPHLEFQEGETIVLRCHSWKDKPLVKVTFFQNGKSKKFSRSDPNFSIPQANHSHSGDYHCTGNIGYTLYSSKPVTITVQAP


Experiments:
[1] = target: T1, FcγRIIb extracellular domain, His tag; experiment: SPR, bound amount per captured antibody
[2] = target: T2, FcγRIIa R type extracellular domain, …; experiment: SPR, bound amount per captured antibody
[3] = target: T3, FcγRIIb extracellular domain with …; experiment: SPR; amount bound divided by amount of IL6R-F652/IL6R-L bound, x100
[4] = target: T4, FcγRIIa R type extracellular domain …; experiment: as above
FcgRIIb = target: T5, FcgRIIb; experiment: SPR, amount bound per captured antibody

| Relative FcgRIIb-binding Activity [1] | Relative FcgRIIaR-binding Activity [2] | Relative FcgRIIb-binding Activity [3] | Relative FcgRIIaR-binding Activity [4] | Relative FcgRIIb-binding Activity (FcgRIIb) [IL6R-BP267/IL6R-L=100] | Binder |
| --- | --- | --- | --- | --- | --- |
| 100 % of IL6R-F652/IL6R-L | 100 % of IL6R-F652/IL6R-L | – | – | – | IL6R-F652/IL6R-L (antibody, human IgG1, kappa, IL6R-F648 (P238D) with M252Y and N434Y) heavy: QVQLQESGPGLVKPSETLSLTCAVSGHSISHDHAWSWVRQPPGEGLEWIGFISYSGITNYNPSLQGRVTISRDNSKNTLYLQMNSLRAEDTAVYYCARSLARTTAMDYWGEGTLVTVSSASTKGPSVFPLAPSSKSTSGGTAALGCLVKDYFPEPVTVSWNSGALTSGVHTFPAVLQSSGLYSLSSVVTVPSSSLGTQTYICNVNHKPSNTKVDKKVEPKSCDKTHTCPPCPAPELLGGDSVFLFPPKPKDTLYISRTPEVTCVVVDVSHEDPEVKFNWYVDGVEVHNAKTKPREEQYNSTYRVVSVLTVLHQDWLNGKEYKCKVSNKALPAPIEKTISKAKGQPREPQVYTLPPSRDELTKNQVSLTCLVKGFYPSDIAVEWESNGQPENNYKTTPPVLDSDGSFFLYSKLTVDKSRWQQGNVFSCSVMHEALHYHYTQKSLSLSP light: not shown |
| – | – | 23.7 | 7.9 | – | IL6R-PD090/IL6R-L (antibody, human IgG1, kappa, human IgG1) heavy: QVQLQESGPGLVKPSETLSLTCAVSGHSISHDHAWSWVRQPPGEGLEWIGFISYSGITNYNPSLQGRVTISRDNSKNTLYLQMNSLRAEDTAVYYCARSLARTTAMDYWGEGTLVTVSSASTKGPSVFPLAPSSKSTSGGTAALGCLVKDYFPEPVTVSWNSGALTSGVHTFPAVLQSSGLYSLSSVVTVPSSSLGTQTYICNVNHKPSNTKVDKKVEPKSCDKTHTCPPCPAPELLGRDSVFLFPPKPKDTLYISRTPEVTCVVVDVSHEDPEVKFNWYVDGVEVHNAKTKPREEQYNSTYRVVSVLTVLHQDWLNGKEYKCKVSNKALPAPIEKTISKAKGQPREPQVYTLPPSRDELTKNQVSLTCLVKGFYPSDIAVEWESNGQPENNYKTTPPVLDSDGSFFLYSKLTVDKSRWQQGNVFSCSVMHEALHYHYTQKSLSLSP light: not shown |
| – | – | 7.9 | 37.7 | – | IL6R-PD044/IL6R-L (antibody, human IgG1, kappa, human IgG1) heavy: QVQLQESGPGLVKPSETLSLTCAVSGHSISHDHAWSWVRQPPGEGLEWIGFISYSGITNYNPSLQGRVTISRDNSKNTLYLQMNSLRAEDTAVYYCARSLARTTAMDYWGEGTLVTVSSASTKGPSVFPLAPSSKSTSGGTAALGCLVKDYFPEPVTVSWNSGALTSGVHTFPAVLQSSGLYSLSSVVTVPSSSLGTQTYICNVNHKPSNTKVDKKVEPKSCDKTHTCPPCPAPELAGGDSVFLFPPKPKDTLYISRTPEVTCVVVDVSHEDPEVKFNWYVDGVEVHNAKTKPREEQYNSTYRVVSVLTVLHQDWLNGKEYKCKVSNKALPAPIEKTISKAKGQPREPQVYTLPPSRDELTKNQVSLTCLVKGFYPSDIAVEWESNGQPENNYKTTPPVLDSDGSFFLYSKLTVDKSRWQQGNVFSCSVMHEALHYHYTQKSLSLSP light: not shown |
| – | – | – | – | 16.7 | IL6R-BP365/IL6R-L (antibody, human IgG1, kappa, name in EU numbering) heavy: QVQLQESGPGLVKPSETLSLTCAVSGHSISHDHAWSWVRQPPGEGLEWIGFISYSGITNYNPSLQGRVTISRDNSKNTLYLQMNSLRAEDTAVYYCARSLARTTAMDYWGEGTLVTVSSASTKGPSVFPLAPSSKSTSGGTAALGCLVKDYFPEPVTVSWNSGALTSGVHTFPAVLQSSGLYSLSSVVTVPSSSLGTQTYICNVNHKPSNTKVDKKVEPKSCDKTHTCPPCPAPDLLGDDSVFLFPPKPKDTLMISRTPEVTCVVVDVYEEDGEVKFNWYVDGVEVHNAKTKPREEQYNSTYRVVSVLTVLHQDWLNGKEYKCKVSNKALPAPIEKTISKAKGQPREPQVYTLPPSRDELTKNQVSLTCLVKGFYPSDIAVEWESNGQPENNYKTTPPVLDSDGSFFLYSKLTVDKSRWQQGNVFSCSVMHEALHNHYTQESLSLSP light: not shown |
| 91.9 % of IL6R-F652/IL6R-L | 90.8 % of IL6R-F652/IL6R-L | – | – | – | IL6R-PD013/IL6R-L (antibody, human IgG1, kappa) heavy: QVQLQESGPGLVKPSETLSLTCAVSGHSISHDHAWSWVRQPPGEGLEWIGFISYSGITNYNPSLQGRVTISRDNSKNTLYLQMNSLRAEDTAVYYCARSLARTTAMDYWGEGTLVTVSSASTKGPSVFPLAPSSKSTSGGTAALGCLVKDYFPEPVTVSWNSGALTSGVHTFPAVLQSSGLYSLSSVVTVPSSSLGTQTYICNVNHKPSNTKVDKKVEPKSCDKTHTCPPCPAPELLGGDSVFLFPPKPKDTLYISRTPEVTCVVVDVSHEDPEVKFNWYVDGVEVHNAKTKPREEQYNSTYRVVSVLTVLHQDWLNGKEYKCKVHNKALPAPIEKTISKAKGQPREPQVYTLPPSRDELTKNQVSLTCLVKGFYPSDIAVEWESNGQPENNYKTTPPVLDSDGSFFLYSKLTVDKSRWQQGNVFSCSVMHEALHYHYTQKSLSLSP light: not shown |
| – | – | 5.4 | 7.8 | – | IL6R-PD038/IL6R-L (antibody, human IgG1, kappa, human IgG1) heavy: QVQLQESGPGLVKPSETLSLTCAVSGHSISHDHAWSWVRQPPGEGLEWIGFISYSGITNYNPSLQGRVTISRDNSKNTLYLQMNSLRAEDTAVYYCARSLARTTAMDYWGEGTLVTVSSASTKGPSVFPLAPSSKSTSGGTAALGCLVKDYFPEPVTVSWNSGALTSGVHTFPAVLQSSGLYSLSSVVTVPSSSLGTQTYICNVNHKPSNTKVDKKVEPKSCDKTHTCPPCPAPERLGGDSVFLFPPKPKDTLYISRTPEVTCVVVDVSHEDPEVKFNWYVDGVEVHNAKTKPREEQYNSTYRVVSVLTVLHQDWLNGKEYKCKVSNKALPAPIEKTISKAKGQPREPQVYTLPPSRDELTKNQVSLTCLVKGFYPSDIAVEWESNGQPENNYKTTPPVLDSDGSFFLYSKLTVDKSRWQQGNVFSCSVMHEALHYHYTQKSLSLSP light: not shown |
| – | – | 10.4 | 20.6 | – | IL6R-PD072/IL6R-L (antibody, human IgG1, kappa, human IgG1) heavy: QVQLQESGPGLVKPSETLSLTCAVSGHSISHDHAWSWVRQPPGEGLEWIGFISYSGITNYNPSLQGRVTISRDNSKNTLYLQMNSLRAEDTAVYYCARSLARTTAMDYWGEGTLVTVSSASTKGPSVFPLAPSSKSTSGGTAALGCLVKDYFPEPVTVSWNSGALTSGVHTFPAVLQSSGLYSLSSVVTVPSSSLGTQTYICNVNHKPSNTKVDKKVEPKSCDKTHTCPPCPAPELLQGDSVFLFPPKPKDTLYISRTPEVTCVVVDVSHEDPEVKFNWYVDGVEVHNAKTKPREEQYNSTYRVVSVLTVLHQDWLNGKEYKCKVSNKALPAPIEKTISKAKGQPREPQVYTLPPSRDELTKNQVSLTCLVKGFYPSDIAVEWESNGQPENNYKTTPPVLDSDGSFFLYSKLTVDKSRWQQGNVFSCSVMHEALHYHYTQKSLSLSP light: not shown |
| – | – | 11.8 | 0.5 | – | IL6R-PD085/IL6R-L (antibody, human IgG1, kappa, human IgG1) heavy: QVQLQESGPGLVKPSETLSLTCAVSGHSISHDHAWSWVRQPPGEGLEWIGFISYSGITNYNPSLQGRVTISRDNSKNTLYLQMNSLRAEDTAVYYCARSLARTTAMDYWGEGTLVTVSSASTKGPSVFPLAPSSKSTSGGTAALGCLVKDYFPEPVTVSWNSGALTSGVHTFPAVLQSSGLYSLSSVVTVPSSSLGTQTYICNVNHKPSNTKVDKKVEPKSCDKTHTCPPCPAPELLGKDSVFLFPPKPKDTLYISRTPEVTCVVVDVSHEDPEVKFNWYVDGVEVHNAKTKPREEQYNSTYRVVSVLTVLHQDWLNGKEYKCKVSNKALPAPIEKTISKAKGQPREPQVYTLPPSRDELTKNQVSLTCLVKGFYPSDIAVEWESNGQPENNYKTTPPVLDSDGSFFLYSKLTVDKSRWQQGNVFSCSVMHEALHYHYTQKSLSLSP light: not shown |
| 80.5 % of IL6R-F652/IL6R-L | 77 % of IL6R-F652/IL6R-L | – | – | – | IL6R-PD004/IL6R-L (antibody, human IgG1, kappa) heavy: QVQLQESGPGLVKPSETLSLTCAVSGHSISHDHAWSWVRQPPGEGLEWIGFISYSGITNYNPSLQGRVTISRDNSKNTLYLQMNSLRAEDTAVYYCARSLARTTAMDYWGEGTLVTVSSASTKGPSVFPLAPSSKSTSGGTAALGCLVKDYFPEPVTVSWNSGALTSGVHTFPAVLQSSGLYSLSSVVTVPSSSLGTQTYICNVNHKPSNTKVDKKVEPKSCDKTHTCPPCPAPELLGGDSVFLFPPKPKDTLYISRTPEVTCVVVDVSPEDPEVKFNWYVDGVEVHNAKTKPREEQYNSTYRVVSVLTVLHQDWLNGKEYKCKVSNKALPAPIEKTISKAKGQPREPQVYTLPPSRDELTKNQVSLTCLVKGFYPSDIAVEWESNGQPENNYKTTPPVLDSDGSFFLYSKLTVDKSRWQQGNVFSCSVMHEALHYHYTQKSLSLSP light: not shown |
| 102 % of IL6R-F652/IL6R-L | 92.5 % of IL6R-F652/IL6R-L | – | – | – | IL6R-PD012/IL6R-L (antibody, human IgG1, kappa) heavy: QVQLQESGPGLVKPSETLSLTCAVSGHSISHDHAWSWVRQPPGEGLEWIGFISYSGITNYNPSLQGRVTISRDNSKNTLYLQMNSLRAEDTAVYYCARSLARTTAMDYWGEGTLVTVSSASTKGPSVFPLAPSSKSTSGGTAALGCLVKDYFPEPVTVSWNSGALTSGVHTFPAVLQSSGLYSLSSVVTVPSSSLGTQTYICNVNHKPSNTKVDKKVEPKSCDKTHTCPPCPAPELLGGDSVFLFPPKPKDTLYISRTPEVTCVVVDVSHEDPEVKFNWYVDGVEVHNAKTKPREEQYNSTYRVVSVLTVLHQDWLNGKEYKCKVNNKALPAPIEKTISKAKGQPREPQVYTLPPSRDELTKNQVSLTCLVKGFYPSDIAVEWESNGQPENNYKTTPPVLDSDGSFFLYSKLTVDKSRWQQGNVFSCSVMHEALHYHYTQKSLSLSP light: not shown |
